Test results published in a protein production outcome set (Wang et al. 2014).

Experiment: label from the status in PepcDB records
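Note: failed if final PepcDB status was selected cloned or expressed and not failed if soluble or beyond.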

Q: Which protein production does the source give for “MSELDVEAVDDINAPAGIDAAEYVLYGGKGGVGKTTCAAATALASARDDTATLVVSTDPAHSLSDTLDADIPATPTRIREDIPLYAAEIDPEAAVGEGPLGVEEDALGGVGELLGGDGMFGGGAGGAAGAGQAEDPIGGEEGLLGGSMPGADEAAALRLLLDYVDDDRFDRVVIDTAPTGHTLRLLELPETMDSMVGKILQLRERFSGMMDNLTGMFGDDQDVDAEAGIEDLQELSDRIEHLRGILQDPQRTDFRIVMVPEELSVVESERLLAQLGEFNIPVSTVVVNRVMQDPSEVLGEDVDIAGPNHADCEFCARRWQVQQDALARSQDMFRGHDVRRVPLFAEEVRGERLLSVVAACLD” here?
A: The protein production was “failed”.

Q: With “MSELGNRAKDQKKIYQRWAPVYDRVYRGILRDGHRKLAGLAAAAGTDILEIGTGTGLTLAHYPSRCRVTGIDISEHMIARAREKVRRENLRHVRALEVMDAHVLRFADKSFDVVCLPFVITLIPEPERALDECARVLRPGGEIILASKLGDGAGLQGAIEAAVAPLVRHIGWSSAFRIHRIVAWAERRGDFSTAEILPVFPNGFFKIVRLKQRGFSA” as the sequence, how does the protein production read?
A: Its protein production is “failed”.

Q: Which protein production does the source give for “MSELIKHSSNFLAAISPDNDCSITATNDFEAMMSWLNGYKKKPINTSRNYAREVKRYLIWLSCQGLTLAQVKIEDVYEYFNLLERPTTEWIIPDKKTDKIYPTQLIKYGGLSNRSINYTHTVLGLFYSFLQDAGYLTKNPINLEHHHHHH” here?
A: Its protein production is “failed”.

Q: Which protein production does the source give for “MSELIKHSSNFLAAISPDNDCSITATNDFEAMMSWLNGYKKKPINTSRNYAREVKRYLIWLSCQGLTLAQVKIEDVYEYFNLLERPTTEWIIPDKKTDKIYPTQLIKYGGLSNRSINYTHTVLGLFYSFLQDAGYLTKNPINLVKKASATTESEQYRHLDLPAWQTLWTWILGYENRVITEDQPAKMIKKASRYRWVFALLYHSGIRCAEAANALMSDLVRKNNTWSLKVTGKGNKMRLVTVNSLLLKELIHYRRSLLLTDYPSSHDDTPLIVSIQKNRQGSMTTRTLSSLIKEVTELVCADCQDDQITRQIETMTTHWLRHTNATHRFMAGASLETTQDELGHADPRTTRIYAKTSNEKRKLDAERLADLFDGIG” here?
A: Its protein production is “failed”.

Q: For “MSELTAFGHSLSSGYEVVVIKPQSLSDTTLIVQALRADKAVILNLEHLDVAEAQRISDFAAGSTYAINGHQSRLGDGVFLFTPNVINIQERTAVPTPAGLV”, which protein production is on record?
A: The protein production was “failed”.

Q: For “MSEMIYGIHAVQALLERAPERFQEVFILKGREDKRLLPLIHALESQGVVIQLANRQYLDEKSDGAVHQGIIARVKPGRQYQENDLPDLIASLDQPFLLILDGVTDPHNLGACLRSADAAGVHAVIVPKDRSAQLNATAKKVACGAAESVPLIRVTNLARTMRMLQEENIWIVGTAGEADHTLYQSKMTGRLALVMGAEGEGMRRLTREHCDELISIPMAGSVSSLNVSVATGICLFEAVRQRS”, which protein production is on record?
A: Its protein production is “not failed”.

Q: For “MSEMLYILQTVLLPIFIMIFLGYILQKKFTLDLNTLAKLNIYVFVPGFIFVKFYKTHFALSLLFYIIIFFVIYMFVLFLIGKLLSMFRKTDKGETTTLTNSLMFFNSGNYGVPVNDLVFKGDPLAMSVQVIVLSLQNIFTFSYGVFAIQSLHIGKLKALLGYFKMPVLYALLLAIILNYNHIPIPEFIWTPANYVADAMIAIALLMLGAQISNIKFSLKWSKSYAYVFIRLIIGPLIALVIIKIMGIEGIIAQTLFIASAMPTSVNSSVIAQEYDNHPELAAELVFLSTLLSAITVVIVIYMSKILF”, which protein production is on record?
A: The protein production was “failed”.

Q: For “MSEMSPKEFKHILVGVDDSDDAQLAFRYAINRAKSDGAKLTIVSILEQDNMNVYEAMSKDFVHGQRKDLEEHVQQYQKLARDFGVTDVNAVVDEGDPGETIVKTVIPALKPDLLVIGSVAKHGVRKYFGSQAAYMAKHAPISVLVIR”, which protein production is on record?
A: The protein production was “failed”.

Q: For “MSENMVNLPDSLYEDYSKLKLTSPSNASSSSSAPPPRLSVVAHPTVEMIIQWVCDIHKPKSYMSDFALHNLAYHRNDFEFLPSLLWESKNTVYIMLQEVFEAYRHLAGHISLRLFPHPLNPLRVYNVFLLFQSMACHPDTSRQFLRAKMPNYFYPLMDTGLIDKSDECMRLAALGVIAHMLKASEDGAVNRYLMESGVVGFCVKPIEFGSTETKKVALYILDKIMSTDQGLYYCCVLADRFYVIDELLKKVLFYLSNMVRPPSSLFSLVTGCYVKLSQNSRARNGIRRYTPFLLFDGTFSRLYAEDPVAANNRIQLLQNLDN”, which protein production is on record?
A: The protein production was “failed”.

Q: With “MSENQKEVSPPQAISVKSEASSSIFSKPISTSSPAGLAAAQRVTPGKLSTLLLEMGPLAIRHITQTLCLDIPCFKDLSSSKQRRLIMSAMESGDKEKSVVFEKIGWGQWSAKRVDPANFDKELEATNFANAKVKDLISQESQRRKSNNSNSNSGGKVEMPMKVEHNITNIDGATTPPTAVASTTIPVNIKRSKSPLAAANVVYIDENALASEDEDEEFDEDDHHLHYQNKSRNSSNNFGKSSNGDPYSFGRRRSQVVFADSTPENIEHEIIAQKIRPLLRNRRRSSIKPHTPFISKLNTHQDSSYLSPNTTSTTTPSNNNSNSNQAKIDLEKLTATSEPTSRRASRLSVSKESSIRSTLFPNKNYLIVTTNPNSKATSVSTSPKLEEQMNVSSNPIVLSDKEKHRVASQHLNGESSPQLVPHSHHQPHSDTDEEDWESIGAASLRNNSLAPNIDSVASSTNGVVSPKPTNPSFTNSQNGDIEPPLQHDQQKHEQQPRNGEDNSAAFLLMSLKS” as the sequence, how does the protein production read?
A: The protein production was “not failed”.

Q: With “MSEPVSSATVLAGGLMGASVFGLATGTDYGVVFGAFAGSVFYVATATNIGRIRLVAYFITSFIVGVLGAGLIGTKLAAITHYEKPLDALGAVIISAMCIKFLTFLNSQDLNTLFSILSRIRGGGSDGSK” as the sequence, how does the protein production read?
A: Its protein production is “failed”.

Q: With “MSEQPSSVSGVKKVAIIPEIHISAPVLAKIVSYVAEESVDALKPFVKAGPLFKSAVYSKETLSCVRLDKSRYYMWWSTTHSIYYHFFTKSLEAKNPHALNAVLYKPIAYENFAAECYRATLWAELYGEYEA” as the sequence, how does the protein production read?
A: The protein production was “failed”.

Q: Which protein production does the source give for “MSEREHWQRVYESKPSDAVSWFQAEATLSLDLIRRIGAPREAAIIDVGGGASTLVDGLLAEGFGDLTVLDLSDAALRVARNRLGARGEEVRWIAGDITGVDLPEATYDVWHDRAVFHFLTTAEARRAYVRQVMKAVRHGGHVIVATFAADGPTECSGLPVMRYDADELHAEFGSAFQLTEHRDEHHVTPAGRVQHFVYCHCLKRLLEHHHHHH” here?
A: The protein production was “failed”.

Q: Which protein production does the source give for “MSESTYPSVKDLTLEEKASLTSGGDSWHLQGVESKGIPGYMITDGPHGLRKSLASSTGETDLNNSVPATCFPPAAGLSSSWNPELIHKVGEAMAEECIQEKVAVILGPGVNIKRNPLGGRCFEYWSEDPYLAGHEAVGIVAGVQSKGVGTSLKHFAANNQETDRLRVDARISQRALREIYLPAFEHIVKTAQPWTIMCSYNRINGVHSAQNHWLLTDVLRDEWGFEGIVMSDWGADHDRVASLNAGLNLEMPPSYTDDQIVYAARDGRIAPAQLDRMAQGMIDLINKACAAMSIDGYRFDVDAHDEVAHQAAIESIVLLKNDDAILPLNADPAAARKIAVIGEFARTPRYQGGGSSHITPTKMTSFLDTLAERGIKADFAPGFTLDLEPADPALESEAVETAKNADVVLMFLGLPEAAESEGFDRDTLDMPAKQIALLEQVAAANQNVVVVLSNGSVVSVAPWAKNAKGILESWLLGQSGGPALADVIFGQVSPSGKLAQSIPLDINDDPSMLNWPGEEGHVDYGEGVFVGYRYYDTYGKSVDYPFGYGLSYATFEIADVAAAKTGANTATVTATVTATVTNTSDVDAAETVQVYVAPGKADVARPKHELKGFTKVFLKAGESKSVTIDLDERAFAYWSEKYNDWHVESGEYAIEVGVSSRDIADTVVVTLEGDGKSQPLTEWSTYGEWEADPFGAKIVAAVAAAGEAGELTKLPDNAMMRIFLNSMPINSLSTLLGEGGKKIAKFMVDEYAKLAK” here?
A: Its protein production is “failed”.

Q: With “MSETITFPPLMTGEAAGPGQDPFDLACQKAELGVDAGLVVYELGTDVLRAALVLAPEVPLAKAMAMLPVCGVGFQNALGALAPPEVAVHLDWNGALRINGARCGRLRIAASTDDPDTQPDWLVVGLDLPLWPEGDGGETPDETALYAEGCADVAAPRLLESWARHCLHWINRWDEGELETIHGEWRGLAHGMGEARTEAGRSGTFLGVDEDFGMLLRDETTTHLIPLTTVLVQD” as the sequence, how does the protein production read?
A: The protein production was “not failed”.

Q: With “MSETTQTSQSLYQALWNSADVLRSKMDANDYKSYLLGMVFYKYLSDKMLFFVAETMEEETESLDEALAVYRKYYEDEETHEDLLAVITDEMSYAIHPDLTFTALVERVNDGSFQLEDLAQGFRDIEQSDELYENLFEDIDLYSKKLGATPQKQNQTVAAVMKELAVLDVAGHAGDMLGDAYEYLIGQFATDSGKKAGEFYTPQPVAKLMTQIAFLGREDKQGFTLYDATMGSGSLLLNAKRYSRQPQTVVYFGQELNTSTYNLARMNMILHGVPIENQFLHNADTLDEDWPTQEPTNFDGVLMNPPYSAKWSASSGFMDDPRFSPFGKLAPKSKADFAFLLHGYYHLKQDNGVMAIVLPHGVLFRGNAEGTIRKALLEEGAIDTVIGLPANIFFNTSIPTTVIILKKNRTNRDVYFIDASKEFDKGKNQNIMTDAHIEKILNAYKSREDIDKFAHLASFEEIVENDYNLNIPRYVDTFEEEEVEPLTEIVAKINQTNATIESQTASLLDMLGQLHGTTPEADEELKAFVKAFKGLEHHHHHH” as the sequence, how does the protein production read?
A: The protein production was “failed”.

Q: Which protein production does the source give for “MSETVTQVNETTQQIVRSRTCGLKDFYIALVQSNTATAYTAGTPVKLARAIKAKIDEKWTSEKIYSDDNTEEVITSYEGTDVELEINALAPQDRVILFGQLYEKGFLRKSSDDRAPEVAVGWRERKLNGKYEFKWLYVGKFAEGISEEASTLEHHHHHH” here?
A: The protein production was “not failed”.

Q: For “MSEVLTRGFRFRPADEEVTDYLMRKTQSPEFSCFIKTIDLYDKDPWVLGHVRDPCYNHYEWYYFVKKNPLGNEYLDKPRLNGFEHPRLKWDVLKQIHDALSSGQNVPPSVFTYGFRFHPTDQELLSLYLTPKAHSPDFSCFIRERESYMPWSHGFLNMLDLLFTRTVNGTTL”, which protein production is on record?
A: Its protein production is “failed”.

Q: For “MSEVTRSLLQRWGASLRRGADFDSWGQLVEAIDEYQILARHLQKEAQAQHNNSEFTEEQKKTIGKIATCLELRSAALQSTQSQEEFKLEDLKKLEPILKNILTYNKEFPFDVQPI”, which protein production is on record?
A: Its protein production is “not failed”.

Q: Which protein production does the source give for “MSEWRGFNRKGNTMKIRPGRHNAPDFPHGAAVTIGNFDGVHLGHKHILQKLRLEADARGLPVVAVVFEPQPKEFFALRTGKTPPCRISPLRTKLELLEGTGCVDAAWVLRFDRNFSEISAQAFIDRLLRQTLNTRYLLVGDDFRFGAGREGCFELLAQQPDMQTERTPSVIVEDIRTSSTAVRQALSDGNLAYAKKLLGHDYVLGGRVVHGRKLGRTLNAPTANIRLPGHRYALGGVFVVEADGAFGTRRGVASFGFNPTVDGGCSQKLEVHLFDFQGDLYGQRLNVRFLHKLRDEEKFDGMEELKRRIEADMEAAKCW” here?
A: Its protein production is “not failed”.

Q: With “MSFASETKKELTNLEVKDCCAKAELSALIRMNGSLSFSNRKVVLDVQTENAAIARRIYTLLKKQYDVSVELLVRKKMRLKKNNVYIVRLIENAKPILEDLKILGDNFVIARNISEDLVKKRCCKRSYMRGAFLAGGSVNNPETSSYHLEIFSLYKEHNDSLCRLMNQFHLNSKTLERKKGYITYLKEAEKITEFLNVIGAHNSLLRFEDVRIVRDMRNSVNRLVNCETANLNKTIGASLRQVENIKLIDERIGLDALPEKLREIAQLRIDYQEVTLKELGEMVSSGKISKSGINHRLRKLDEIAEQLR” as the sequence, how does the protein production read?
A: Its protein production is “not failed”.

Q: For “MSFEAFTELYIRDVKNRLKENTWLTKEHIIRTKILPFFGKLKISEISTKEIITWQNEMLAYRDEKKKPYSQTYLKTLHNQLSAIFNHAVRYYELRSNPAAKVGNMGSELEHHHHHH”, which protein production is on record?
A: Its protein production is “not failed”.

Q: Which protein production does the source give for “MSFKVISTGPQAIFQDRGRFGFASAGVGTSGSFDRLSAARANHALGNDPNATVVEILLGGFEVEALHTTSIVFTGTEAEVMVRTAGGQSKNATTNTIIDVAAGERIRVEPATYGMRAYFAARGGFAVEKTLGSASTDLISHMGPRPIEPGDVIDVATDIADSQWWPKLRQLPTLWKRMPTETLTVIRGPRDKWFTQESLNNFFTQVFTVSNDSNRIGLRMHSSEPIQHRVEGELKSEGMVRGSIQIPPGGNPVVFGPDHPVTGGYPVIAVLTSRSCDRSAQLLPGDKVRFKLL” here?
A: Its protein production is “failed”.
